Experiment: yeast display, Sf9 membrane polyspecificity reagent, FACS + sequencing; frameworks hold sequencing errors
How it was run: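 Genes from sorted yeast were amplified by colony PCR, read by MiSeq 2 × 250 sequencing and filtered on CDR length. These cells carried a synthetic nanobody library in Saccharomyces cerevisiae BJ5465 and were sorted by FACS into low and high (top ~1%) gates on anti-HA and streptavidin fluorescence. Polyreactivity is labelled according to the gate of origin.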

Sequence	polyreactivity (PSR sort gate)
QFQLVESGGGLVQAGGSLRLSCAASGSIFYGYAMGWYRQAPGKERELVAAITSSNGSTYYADSVKGRFTISRDNEKNTVYLQMNSLKPEDTAVYYCAADVHGSYYIKPNVWYDYWGQGTQVTVSS	low polyreactivity
QFQLVESGGGLVQAGGSLRLSCAASGSIFYGYTMGWYRQEPGKERELLAAIRKSGGSTNYADSVKGRFTISRDNAKNTVYLQMNSLKPEDTAVYYCSASYYRGRGYYWGQGTQVTVSS	high polyreactivity
QFQLVESGGGLVQAGGSLRLSCAASGSTFAFYAMGRYRQAPGKERELVPAINLGGGSTYYAASVKGRFTISRDNAKNTVYLQMNSLKPEDTAVYYCAADFWTISWPVFDTYEYWGQGTQVTVSS	low polyreactivity
QFQLVESGGGLVQAGGSLRLSCAASGSTFIRYAMGWYRQAPGKERELVAAISRSGGNTYYADSVKGRFTISRDKAKNTVYLQMNSLKPEDTAVYYCNKDRQQALNYWGQGTQVNVSS	high polyreactivity
QFQLVESGGGLVQAGGSLRLSCAASGSTFITNAMGCYRQAPGKERELVASITRGAGSTYYADSVKGRITISRDNAKNTVYLQMNSLKPEDTAVYYCRLAPRYRKGGYWGQGTQVTVSS	high polyreactivity
QFQLVESGGGLVQAGGSLRLSCAASGSTFIYYTMGWYRQAPGKERELVAAIPSSGGSTYYADSVKGRFTISRDNAKNTVYFQMNSLKPEDTAVYYCAADGTYIKFAKLYRRYDYWGQGTQVTVSS	low polyreactivity
QFQLVESGGGLVQAGGSLRLSCAASGSTFLLYAMGWYRQAPGKEREFVASISGDGSSNYADSVKGRFTISRDNAKITVYLQMNSLKPEDTAVYYCAAVLLDPDSTLESGGNFDYWGQGTQVTVSS	low polyreactivity
QFQLVESGGGLVQAGGSLRLSCAASGSTFVFYAMGWYRQAPGKQRELVATISTGGSTYADSVKGRFTISRDNAKNTVYLQMNSLKPEDTAVYYCAADSLFGHYDYSGQGTQVTVSS	low polyreactivity
QFQLVESGGGLVQAGGSLRLSCAASVLTFSAYAMGWYRQAPGKEREFVAAITDSDGSTYYADYVKGRFTISRDNEKNTVYLQMNSLKPEDTAVYYCAASGSWYYGYWSGGYDYWGQGTQVTVSS	low polyreactivity
QFQLVESGGGLVQAGGSLRLSCAATGSIIGANAMGWYRQAPGKERELVAAISTRGGRTYYADSVKGRFTISRDNAKNTVYLQMNSLKPEDTAVYYCATSGGRPYKYEYWGQGTQVTVSS	high polyreactivity
QFQLVESGGGLVQAGGSLRLSCADSGRILRFYAMGWYRQAPGKERELVAAISWTGGRTYYADSVKGRFTISRDNAKNTVYLQMNSLKPEDTAVYYCAAEVFTTGSFRRYDYWGQGTQVTVSS	high polyreactivity
QFQLVESGGGLVQAGGSLRLSCADSVRTLYRNVMVWYRHAPVKERELVAAISLSGGSTYYEDSVKGRFTISRDNANYTVYLQMNSMKPEYTAVYYCAVKRPYCPGEYGYWGQGTQVTVSS	high polyreactivity
QFQLVESGGGLVQAGGSLRLSCASSGIIFKRYAMGWYRQAPGNERELVAAISTSGSTYYADSVKGRFTISRDNAKNTVYLQMNSLKPEDTAVYYCAAGRWWRYFTWHGYWGQGTQVTVSS	high polyreactivity
QFQLVESGGGLVQAGGSLRLSFAASGFIFGLYAMGWYRQAPGIETELVAAISGSGGSTYYADSVKGRFTISRDNAKNTVYLQMNSLKPEDTAVYYCNRAQGVHTYVYRYGYWGQGTQVTVSS	low polyreactivity
QFQLVESGGGLVQAGGSLRLSSAASGSIFRSYAMGWYRQAHGKERELVAAISSRSGSTYYADSVKGRFTISRDNAKNTVYLQMNSLKPEETAVYYCAAQHRHSYGYWGQGTQVTVSS	high polyreactivity
QFQLVESGGGLVQAGGSLSLSCAASGSTLQSYAMGWYRQAPGKERELVAGIRISGGNTRYADSVKGRFTISRDNAKNTVYLQMNSLIPEDTAVYYCAALTGFYNLRPYGYWGQGTQVTVSS	high polyreactivity

Sequence	polyreactivity (PSR sort gate)
QFQLVESGGGLVQARGSLRLSCAPSGRTFGIYTMGWYRPAPGKERELVAAISAGGGRTSYADSVKGRFTISRDHAKNTVYLQMMSLKPEDTAVYYCAARVYQYRNEDTTRRAGRSYWGQGTQVTVSS	high polyreactivity
QFQLVESGGGLVQEGGSLRLSCAPSGSTFRFYAMGWYRQSPGKERELVAVISSAGSTNYADSVKGRFTISRDNAKNTVYLQMNSLKPEDTAVYYCAAYRRYSIYNYWGEGTQVTVSS	high polyreactivity
QFQLVESGRGIVQAGGSLRLSCAASGFTFGPSAMVWYRQAPGKERELVAVISRSGGRTYYADSVKGRFTISRDNAKNTVYLQMNSLKPEDTAVYYCAAAGYGNDGYDYWGQGTQVTVSS	high polyreactivity
QFQLVESGRGLVQAGGSIRLSCAASGSIFRWYAMGWSRQAPGKERELVAAISYGGGSTYYADSVKGRFTISRDNAKNTVYLQMNRLKPEDTAVYYCNRGYPSTLYDYWGQGTQVTVSS	high polyreactivity
QFQLVESGRGLVQAGGSLRLSCAASGLIFRYYAMGWYRQAPGKERELVAAIRTGGSTYYADSVKGRFTISRDNAKNTVYLQMNSLKPEDTAVYYCAALLLSWYRTSYDFDYWGQGTQVTVSS	high polyreactivity
QFQLVESGVGLVQAGASLRLSCAASVLTFVGNAMGWYRQAPGKERELVDAISKRGGRTYYADSVKGRFRISRDNAKNTVYLQMNSLKPEDTAVYYCAATIKAYPTPLLGDYWGQGTQVTVSS	high polyreactivity
QFQLVESGVGLVQAGGSLRLSCAASGRTSGSYAMGWYRQAPGKERELVAVITTSDGSTYYADSVKGRFTISRDNAKNTVYLQMNSLKPEDTEVYYCNVDYPNLWYDSYYYWGQGTEVTVSS	low polyreactivity
QFQLVESWGGLVQAGGSLRLSCAASGYIFGYVMGWYRQAPGKERELVAAITYSSGNTYYADSVKGRFTISRDNAKNTVYLQMNSLKPEDTAVYYCAKQAYYKGRLAYGYWGQATQVTVSS	high polyreactivity
QFQLVETGGGIVHAGGSLRLSCAASGSTFWYYAMGWYRQAPGKERELVAGITQSGGSTYYADSVKGRFTISRDNAKNTVYLQMNSLKPEDSAVYYFAKDGRVSGDFVYWGQGTQVTVSS	low polyreactivity
QFQLVETRRGLVQAGGSLRLSCAASGSIFLENAMRRYRQAPGKERELVAVINSGDSTYYADSVKGRFTMSRDNAKNTVYLQMNSLKPEDTSVYYCAADRDVRTRVFSYDYWGQGTQVTVSS	low polyreactivity
QGHLVESGGGLFQAGGSLRLSCAASGSILSYYALGRYRQAPGKEMEMVAVINSGGRTNYADAVKGRFTISRDNAKYTVYLQMNSLKTEDTAVYDCAAQGYFVDRAGRYYRVDYRGQGTQVTVSS	high polyreactivity
QGQLEDSGGGLVQAGGSLRLSCAASGLTYDHNAMGWYRNATGKEREFFAVISWRGTSTYYADSVKGRFTISRDNAKNTVFLQMHSLKPEDTAVYYCATRYYGDDVYRYDHWGQGTQVTVSS	high polyreactivity
QGQLEESGGGLVQAGGSLRLSCAASGFTIYRYAKGWYRQAPGKAMELVAAISNSGGSTYYADSVKGRFTISRDNAKNTVYVQMNSLKPEDTAVYYCAADPGYNVYGYYYWGQGTQVTVSS	high polyreactivity
QGQLVEAGGGLVQAGGSLRLSCAASGNTFKKYARGWYRQAPGKERELVAAISNGGSTTYADSVKGRFTISLDTAKNTVYLQMNSLKPEDTAVYYCNAGRPYGTQKRYDYWGQGTQVTVSS	low polyreactivity
QGQLVESGAGLVQAGGSLRLSCAASGFIFYDYVMGWYRQAPGKERELVAAITGSGGGTYYADSVKGRFTISRDNAKNTVYLQMNSLKPEDTAVYYCAADYISVYGYEYWGQGTQVTVSS	high polyreactivity

From the nanobody polyreactivity screen of Harvey et al. (2022)
